Test results reported in the RNAGym collection of RNA variant scans (doi:10.1073/pnas.2313332121).

B1: TPR t1 (parent)
chain: GACCAAUCUGCCCUCAGAGCUCGAGAACAUCUUCGGAUGCAGAGGAGGCAGGCUUCGGUGGCGCGAUAGCGCCAACGUCCUCAACCUCCAAUGCAUCCCACCACAUGAUGAUGCCUGAAGAGCCUUGGUUUUUUG

Variants of: B1
Test: polymerase ribozyme fitness, log enrichment relative to wild type (log ratio); higher = more active; in vitro selection for triplet polymerase activity
How it was run: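 Input and output libraries were sequenced on Illumina after a single in vitro selection round, run in triplicate on PCR-built, transcribed mutant libraries of each subunit of a heterodimeric triplet polymerase ribozyme. Selection annealed libraries to a biotinylated primer, the partner subunit and triplets, incubated them frozen at −7 °C, then gel-excised extended constructs for streptavidin-bead capture and RT-PCR. Genotypes with ≥10 input reads and ≥1 read per output were kept. Fitness is the logarithm, taken in base 2, of genotype enrichment divided by wild-type enrichment, using inverse-variance-weighted replicate averages.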

| Variant | polymerase ribozyme fitness (log ratio) |
| --- | --- |
| GACCAAUCUGCCCUCAGAGCUCGAGAACAUCUUCGGAUGCAGAGGAGGCAGGCUUCUGUGGCGCGAUAGCGCCAACGUCCUCAACCUCCAAUGCAUCCCACCACAUGAUAAUGCCUGAAGAGCCUUGGUUUUUUG [G57U G110A] | -1.16 |
| GACCAAUCUGCCCUCAGAGCUCGAGAACAUCUUCGGAUGCAGAGGAGGCAGGCUUCUGUGGCGCGAUAGCGCCAACGUCCUCAACCUCCAAUGCAUCCCACCACAUGAUGAUGCCUGAAGUGCCUUGGUUUUUUG [G57U A121U] | 1.92 |
| GACCAAUCUGCCCUCAGAGCUCGAGAACAUCUUCGGAUGCAGAGGAGGCAGGCUUCUGUGGCGCGAUAGCGCCAACGUCCUCAUCCUCCAAUGCAUCCCACCACAUGAUAAUGCCUGAAGAGCCUUGGUUUUUUG [G57U A84U G110A] | -2.32 |
| GACCAAUCUGCCCUCAGAGCUCGAGAACAUCUUCGGAUGCAGAGGAGGCAGGCUUCUGUGCCGCGAUAGCGCCAACGUCCUCAACCUCCAAUGCAUCCCACCACAUGAUGAUGCCUGAAGAGCCUUGGUUUUUUA [G57U G61C G135A] | -2.69 |
| GACCAAUCUGCCCUCAGAGCUCGAGAACAUCUUCGGAUGCAGAGGAGGCAGGCUUCUGUGGCGCGAUAGCUCCAACGUCCUCAACCGCCAAUGCAUCCCACCACAUGAUGAUGCCUGAAGAGCCUUGGUUUUUUG [G57U G71U U87G] | -0.217 |
| GACCAAUCUGCCCUCAGAGCUCGAGAACAUCUUCGGAUGCAGAGGAGGCAGGCUUCUGUGGCGCGAUAGCGCCAACGUCCUCAACCUCCAAUGCAUCCCACCACAUGAUGAUGCCUGAAGAGACUUGGUUUUUUG [G57U C123A] | 0.124 |
| GACCAAUCUGCCCUCAGAGCUCGAGAACAUCUUCGGAUGCAGAGGAGGCAGGCUUCUGUGGGGCGAUAGCGCCAACGUCCUCAACCUCCAAUGCAUCCCACCACAUGAUGAUGCCUGAAGAGCCUUGGUUUUUUG [G57U C62G] | -1.62 |
| GACCAAUCUGCCCUCAGAGCUCGAGAACAUCUUCGGAUGCAGAGGAGGCAGGCUUCUGUGGCGCGAUAGCGUCAACGUCCUCAACCUCCAAUGCAUCCCACCACAUGAAGAUGGCUGAAGAGCCUUGGUUUUUUG [G57U C72U U109A C114G] | -5.21 |
| GACCAAUCUGCCCUCAGAGCUCGAGAACAUCUUCGGAUGCAGAGGAGGCAGGCUUCUGUGGCGCGAUAGCGCCAACGUCCUCAACCUCCAAUGCAUCCCACCACAUGAUGAUGCCUAAAGAGCCUUGGUUUUUUU [G57U G117A G135U] | -2.73 |
| GACCAAUCUGCCCUCAGAGCUCGAGAACAUCUUCGGAUGCAGAGGAGGCAGGCUUCUGUGGCGCGAUAGUGCCAACGUCCUCAACCUCUAAUGCAUCCCACCACAUGAUGAUGCCUGAAGAGCCUUGGUUUUUUG [G57U C70U C89U] | -1.44 |
| GACCAAUCUGCCCUCAGAGCUCGAGAACAUCUUCGGAUGCAGAGGAGGCAGGCUUCUGUGGCGCGAUAGCGCCAACGUCCUAAACCUCCAAUGCAUCCCACCACAUGAUGAUGCCUGAAGAGUCUUGGUUUUUUG [G57U C82A C123U] | 0.32 |
| GACCAAUCUGCCCUCAGAGCUCGAGAACAUCUUCGGAUGCAGAGGAGGCAGGCUUCUGUGGCGCGAUAGCGCCAACGUCCUCAACCUCCAAUGCAUCCCACCACAUGAUGAUUCCUGAAGAGCCUUGGUUUUUUG [G57U G113U] | -1.79 |
| GACCAAUCUGCCCUCAGAGCUCGAGAACAUCUUCGGAUGCAGAGGAGGCAGGCUUCUGUGGCGCGCUAGCGCCAACGUCCUCAACCUCCAAUGCAUCCCACCACAUGAUGAUGCCUGAAGAGCCUUGGUUUUUUG [G57U A66C] | -1.65 |
| GACCAAUCUGCCCUCAGAGCUCGAGAACAUCUUCGGAUGCAGAGGAGGCAGGCUUCUGUGGCGCGAUAGCGCCAACGUCCUCAACCUACAAUGCUUCCCACCACAUGAUGAUGCCUGAAGUGCUUUGGUUUUUUG [G57U C88A A95U A121U C124U] | -1.04 |
| GACCAAUCUGCCCUCAGAGCUCGAGAACAUCUUCGGAUGCAGAGGAGGCAGGCUUCUGUGGCGCGAUAGCGCCAACGUCCUCAACCUACAAUGCAUCCCACCACAUGAUGAUGCCUGAAGAGCCUUGGUUUUUUG [G57U C88A] | -1.1 |
| GACCAAUCUGCCCUCAGAGCUCGAGAACAUCUUCGGAUGCAGAGGAGGCAGGCUUCUGUGGCGCGAUAGCGCCAACGUCCUCAACCUGCAAUGCAUCCCACCACAUGAUGAUGCCUGAAGAGCCUUGGUUUUUUG [G57U C88G] | -1.99 |
| GACCAAUCUGCCCUCAGAGCUCGAGAACAUCUUCGGAUGCAGAGGAGGCAGGCUUCUGUGGAGCGAUAGCGCCAACGUCCUCAACCUCCAAUGCAUCCCACCACAUGAUGAUGCCUGAAGAGCCAUGGUUUUUUG [G57U C62A U125A] | -4.41 |
| GACCAAUCUGCCCUCAGAGCUCGAGAACAUCUUCGGAUGCAGAGGAGGCAGGCUUCUGUGGCGCGAUAGCGCCAACGUCCUCAACCUCCAAUGCAUCCCACCACAUGAUGAUGCCUGAACAGCCUUGGUUUUUUG [G57U G120C] | 0.593 |
| GACCAAUCUGCCCUCAGAGCUCGAGAACAUCUUCGGAUGCAGAGGAGGCAGGCUUCUGUGGCGUGAUAGCGCCAACGGCCUCAACCUACAAUGCAUCUCACCACAUGAUGAUGCCUGAAGAGCCUUGGUUCUUUG [G57U C64U U78G C88A C98U U131C] | -2.15 |
| GACCAAUCUGCCCUCAGAGCUCGAGAACAUCUUCGGAUGCAGAGGAGGCAGGCUUCUGUGGCGCGAUAGCGCCAACGUCCUCAACCACCAAUGCAUCCCACCACAUGAUGAUGCCUGAAGAGCCUUGGUUUUUUG [G57U U87A] | -0.845 |
| GACCAAUCUGCCCUCAGAGCUCGAGAACAUCUUCGGAUGCAGAGGAGGCAGGCUUCUGUGGCGCGAUAACGCCAACGUCCUCAACCUCCAAUGCAUCCCACCACAUGAUGAUGCCUGAAGAGCCUUGGUUUUUUG [G57U G69A] | -2.73 |

| Variant | polymerase ribozyme fitness (log ratio) |
| --- | --- |
| GACCAAUCUGCCCUCAGAGCUCGAGAACAUCUUCGGAUGCAGAGGAGGCAGGCUUCUGUGGCGCGAUACCGCCAACGUCCUCAACCUCCAAUGCAUCCCACCACAUGAUGAUGCCUGAAGAGCCUUGGUUUUUUG [G57U G69C] | -0.847 |
| GACCAAUCUGCCCUCAGAGCUCGAGAACAUCUUCGGAUGCAGAGGAGGCAGGCUUCUGUGGCGCGAUAGCGCUAACGUCCUCAACCUCCAAUGCAUCCCACCACAUGAUGAUGCCUGAAGAGCCUUUGUUUUUUG [G57U C73U G127U] | -1.28 |
| GACCAAUCUGCCCUCAGAGCUCGAGAACAUCUUCGGAUGCAGAGGAGGCAGGCUUCUGUCCCGCGAUAGCGCCAACGUCCUCAACCUCCAAUGCAUCCCACCACAUGAUGAUACCUGAAGAGCCUUGGUUUUUUG [G57U G60C G61C G113A] | -4.44 |
| GACCAAUCUGCCCUCAGAGCUCGAGAACAUCUUCGGAUGCAGAGGAGGCAGGCUUCUGUCGCGCGAUAGCGCCAACGUCCUCAUCCUCCAAUGCAUCCAAUCACAUGAUGAUGCCUUAAGAGCCUUGGUUUUUUG [G57U G60C A84U C99A C101U G117U] | -6.95 |
| GACCAAUCUGCCCUCAGAGCUCGAGAACAUCUUCGGAUGCAGAGGAGGCAGGCUUCUGUGGCGCGAUAGCGACAACGUCCUCAACCUUCAAUGCAUCCCACCACAUGAUGAUGCCUGAAGAGCCUUGGUUUUUUG [G57U C72A C88U] | -1.77 |
| GACCAAUCUGCCCUCAGAGCUCGAGAACAUCUUCGGAUGCAGAGGAGGCAGGCUUCUGUGGCGCGAUAGCGCCAACGUCCUCAACCUCCAAUGCAUCCCACCACAUUAUGAUGCCUGAAGAGCCUUGGUUUUUUG [G57U G107U] | -5.11 |
| GACCAAUCUGCCCUCAGAGCUCGAGAACAUCUUCGGAUGCAGAGGAGGCAGGCUUCUGUGGCGCGAUAGCGCGAACGUCCUCAACCUCCAAUGCAUCCCACCACAUGAUGAUGCCUGAAGAGCCUUGGUUUUUUG [G57U C73G] | -0.228 |
| GACCAAUCUGCCCUCAGAGCUCGAGAACAUCUUCGGAUGCAGAGGAGGCAGGCUUCUGUGGCGCGAUAGCGCCAACGUCCUCAACCACGAAUGCAUCCCACCAUAUGAUGAUGCCUGAAGAGCCUUGGUUUUUUG [G57U U87A C89G C104U] | -4.28 |
| GACCAAUCUGCCCUCAGAGCUCGAGAACAUCUUCGGAUGCAGAGGAGGCAGGCUUCUGUAGCGCGAUAGCGCCAACGUCUUCAACCUCCAAUGCAUCCCACCACAUGAUGAUGCCUGAAGAUCCUUGGUUUUUUG [G57U G60A C80U G122U] | -2.06 |
| GACCAAUCUGCCCUCAGAGCUCGAGAACAUCUUCGGAUGCAGAGGAGGCAGGCUUCUGUGGCGCGAUAGCGCCAACGUCCUCAACCUCUAAUGCAUCCCACCACAUGAUGAUGCCUGAAGAGCCUUGGUUUUUUG [G57U C89U] | -0.78 |
| GACCAAUCUGCCCUCAGAGCUCGAGAACAUCUUCGGAUGCAGAGGAGGCAGGCUUCUGUGGCGCGAUAGCGGCAACGUCCUCAACCUCCAAUGUAUCCCACCACAUGAUGAUGCCUGAAGAACCUUGGUUUUUUG [G57U C72G C94U G122A] | -3 |
| GACCAAUCUGCCCUCAGAGCUCGAGAACAUCUUCGGAUGCAGAGGAGGCAGGCUUCUGUGGCGCGAUAGCGCCAACGUCCUCAACCUCCAAUGCAUCCCACCACAUGAUGAUGCCUUAAGAGCCUUGGUUUUUUG [G57U G117U] | -2.86 |
| GACCAAUCUGCCCUCAGAGCUCGAGAACAUCUUCGGAUGCAGAGGAGGCAGGCUUCUGUCGCGCGAUAGCGCCAACGUCCUCAACCUCCAAUGCAGCCCACCACAUGAUGAUGCCUGAAGAGCCUUGGUUUUUUG [G57U G60C U96G] | -2.78 |
| GACCAAUCUGCCCUCAGAGCUCGAGAACAUCUUCGGAUGCAGAGGAGGCAGGCUUCUGUGGCGCGAUAGCGCCAACGUCCUCAACCUCCAAUGCAUCCAACCACAUGAUGAUGCCUGAAGAGCAUUGGUUUUUUG [G57U C99A C124A] | -4.71 |
| GACCAAUCUGCCCUCAGAGCUCGAGAACAUCUUCGGAUGCAGAGGAGGCAGGCUUCUGUGGCGCGAUAUCGCCAACGUCCUCAACCUCCAAUGCAUCCCACCACAUGAUGAUGCUUGAAGAGCCUUGAUUUUUUG [G57U G69U C115U G128A] | -1.11 |
| GACCAAUCUGCCCUCAGAGCUCGAGAACAUCUUCGGAUGCAGAGGAGGCAGGCUUCUGUUGCGCGAUAGCGCCAACGUCCUCAACCUCCAAUGCAUCCCACCACAUGAUGAUGCCUGAAGAGUCUUGGUUUUUUG [G57U G60U C123U] | 0.317 |
| GACCAAUCUGCCCUCAGAGCUCGAGAACAUCUUCGGAUGCAGAGGAGGCAGGCUUCUGUGGCGCGAUAGCGCCAACGUCCUGAACCUCCAAUGCAUCCCACCACAUGAUGAUGCCUGAAGAGCCUUGGUUUUUUG [G57U C82G] | 0.0757 |
| GACCAAUCUGCCCUCAGAGCUCGAGAACAUCUUCGGAUGCAGAGGAGGCAGGCUUCUGUGGCGCGAUGGCGCCAACGUCCUCAACCUCCAAUGCAUCCCACCACAUGAUGAUGCCUGAAGAGCCUUGGUUUUUUG [G57U A68G] | -3.27 |
| GACCAAUCUGCCCUCAGAGCUCGAGAACAUCUUCGGAUGCAGAGGAGGCAGGCUUCUGUGGCGCGAUAGCGUCAACGUCCUCAACCUCCAAUGCAUCCCACCACAUGAUGAUGCCUGAAGAGCCUUGGUUUUUUG [G57U C72U] | -0.387 |
| GACCAAUCUGCCCUCAGAGCUCGAGAACAUCUUCGGAUGCAGAGGAGGCAGGCUUCUGUGGCGCGAUAGCGCCAACGUCCUCAACCUCCAAUGAAUCUCACCACAUGAUGAUGCUUGAAGAGCCUUGGUUUUUUG [G57U C94A C98U C115U] | -5.64 |
| GACCAAUCUGCCCUCAGAGCUCGAGAACAUCUUCGGAUGCAGAGGAGGCAGGCUUCUGUGGCGCGAUAGCGCCUACGUUCUCAACCUCCAAUGCAUCCCACCACAUGAUGAUGCCUGAAGAGCCUUGGUUUUUUG [G57U A74U C79U] | -0.181 |
